Data on four molecules can be found in paper PMC3462190, “A Peptidic Unconjugated GRP78/BiP Ligand Modulates the Unfolded Protein Response and Induces Prostate Cancer Cell Death” (PLoS ONE, 2012).

Entries after “also recorded” stand apart in the source; their conditions may differ. Where no end group is shown, it is not given here.

The assay deals with 22Rv.1 xenograft tumor. Nature of the assay: 22Rv.1 tumor xenograft study. Type of assay: in vivo, athymic nude mice. The conditions noted are these: for tumor growth inhibition in vivo: xenografts of single 22Rv.1 clones stably expressing the peptide. How it is done: All animal experiments were performed according to European and German statutory regulations. For generation of xenograft models 5×10^6 LNCaP cells were resuspended in a solution of 50% Matrigel® (BD Bioscience, Heidelberg, Germany) in PBS or 5×10^6 22Rv.1 cells in 100 µl of PBS were subcutaneously injected into both flanks of 6–8 week-old athymic nude mice. Tumor size was measured with a caliper every week. Tumors derived from the injection of stable clones overexpressing the Bag-1 peptide were analyzed over a period of 9 weeks while tumors from cells transfected with the empty expression vector or expressing the N-terminal, the C-terminal and the ΔN-peptide were analyzed over 5 weeks. Tumor size was assessed measuring three perpendicular diameters according to the formula: V = (1/6) [π] (d1d2d3), where π is a mathematic constant and d1, d2 and d3 represent the three spatial dimensions (width, depth and height). Mice were euthanized by cervical dislocation and the tumors removed for further analysis.
Figure 4 The Bag-1 peptide inhibits prostate cancer cell growth in vivo. A. Stable clones of 22Rv.1 cells show reduced cell viability in vitro. Stable clones were seeded in a 96-well plate and the cell number in each well was estimated by measuring the ratio between the wavelength of excitation and emission 560/590 nm using the CellTiter-Blue™ proliferation assay. The bar charts represent the mean of at least four independent experiments ±SD (*p<0.05). B. Determination of the level of the Bag-1 expressed in the 22Rv.1 clones. Cellular extracts of 22v.1 stable clones were subjected to Western blot analysis. An anti-HA antibody was used to detect the peptide and an anti-β-actin antibody for equal loading control. C-D. The Bag-1 peptide reduces 22Rv.1 prostate tumor cell growth in vivo. Six-week old athymic nude mice were injected subcutaneously in both flanks with 5×10^6 cells of each stable clone. Tumor size was measured once per week using a caliper and expressed as tumor volume in mm^3. Shown are (C) the tumor volumes of clones transfected with empty expression vector and (D) clones expressing the Bag-1 peptide. Each point represents the mean volume and standard deviation of at least 5 to 10 tumors. E. Xenografts of stable clones expressing the Bag-1 peptide show increased apoptosis. Five-micron sections of formalin-fixed, paraffin-embedded tumor tissues were subjected to immunohistochemistry. Nuclei are stained blue-purple with hematoxylin while apoptotic cells detected with the TUNEL assay are stained brown. Representative sections of xenografts obtained from each 22Rv.1 stable clone were acquired with an Axioscop microscope (Zeiss). V: stands for empty vector expressing clone and P: peptide expressing clone.
Figure 5 An N-terminal unfolded fragment of the Bag-1 peptide is sufficient to reduce tumor cell growth. A. Schematic diagram of the Bag-1 peptide and its deletion mutants. The ubiquitin-like domain is represented in blue and the BAG domain in red. The numbers refer to the amino acid positions of the different domains. The amino acid residues are numbered following the numbering for Bag-1L. B. Prediction of the secondary structure of the Bag-1 peptide, showing an N-terminal β-hairpin from the ubiquitin-like domain (blue) and a C-terminal α-helix from the BAG domain (red). C. Normalized circular dichroism spectra of the Bag-1 peptides. 30 µM of the Bag-1 peptide were measured in 20 mM KHPO4 buffer, pH 6.8 (black line). Its α-helical content was estimated to be approximately 25% by deconvolution of the spectra (red line). 12 µM of the N-term peptide (green line) and 11 µM of C-term (blue line) were measured under the same conditions. D. ^1H^15N-HSQC NMR spectrum of ^15N-labeled Bag-1 peptide (202–269) in 20 mm KHPO4 buffer, pH 6.8, at 23°C. […] The Hδ and Hε side chain signals of asparagine and glutamine are connected by thin lines. […]

Regarding “C-terminal peptide: 28 C-terminal fragment of the Bag-1 peptide (Bag-1L 241–269) (EKIADQLEELNKELTGIQQGFLPKDLQAE; not fully specified)”, the “tumor growth inhibition in vivo” value is listed as “This effect was not seen”.

Consider “N-terminal peptide: N-terminal 40 residues of the Bag-1 peptide (Bag-1L 202–241) (TPLSALGIQDGCRVMLIGKKNSPQEEVELKKLKHLEKSVE; not fully specified)”, for which the “tumor growth inhibition in vivo” value is recorded as “reduces tumor growth in vivo; also recorded: growth inhibitory action of the peptides was also confirmed in xenograft models”.

As to “ΔUbi peptide: Bag-1 peptide lacking the ubiquitin-like domain portion (Bag-1L 220–269) (KKNSPQEEVELKKLKHLEKSVEKIADQLEELNKELTGIQQGFLPKDLQAE; not fully specified)”, the “tumor growth inhibition in vivo” value is reported as “This effect was not seen”.

B1: Bag-1 peptide: internal sequence of 68 amino acids of Bag-1 (Bag1-L 202–269), HA-tagged, expressed from pcDNA3 (peptide)
chain: TPLSALGIQDGCRVMLIGKKNSPQEEVELKKLKHLEKSVEKIADQLEELNKELTGIQQGFLPKDLQAE
modifications: also: HA tag, end not given here
B1 had a tumor volume (22Rv.1 cells expressing the peptide (P42, P25 and P29), 9 weeks, empty vector: average 1.2 cm^3 in 4–8 weeks) of 0.4 cm^3. Moreover, the “Tumor weight, clone P25” value (22Rv.1 clone P25, termination 7–9 weeks, mean and SD of 4–10 tumors, vector clones 1.24–1.73 g) was found to be 0.31 ± 0.14 g. In addition, the “Tumor weight, clone P29” value (22Rv.1 clone P29, termination 9 weeks, mean and SD of 4–10 tumors, vector clones 1.24–1.73 g) amounted to 0.42 ± 0.17 g. Also, the “Tumor weight, clone P42” value (22Rv.1 clone P42, termination 9 weeks, mean and SD of 4–10 tumors, vector clones 1.24–1.73 g) stood at 0.38 ± 0.20 g. Besides, the tumor condition result (22Rv.1 peptide clone 25, mice euthanized earlier than 9 weeks) was “the tumors were necrotic”.
